Results as given in patent US20220098287A1 (Teva, published 2022).
Where no end group is shown, it is not given here.

Biological target: T1, antibody G1 Fab fragment
T1 construct: also called TEV-48125; fremanezumab
Assay: SPR (Biacore) competition: 50 nM G1 Fab pre-incubated 1 h with 10 µM competing peptide, then flowed over N-biotinylated human α-CGRP on SA chip
Excerpt: Y axis represents percentage of binding blocked by the presence of the competing peptide compared with the binding in the absence of the competing peptide.
All these peptides are amidated at the C-terminus.

T1 sequence (VH, as listed by the source, chain 1 of 2): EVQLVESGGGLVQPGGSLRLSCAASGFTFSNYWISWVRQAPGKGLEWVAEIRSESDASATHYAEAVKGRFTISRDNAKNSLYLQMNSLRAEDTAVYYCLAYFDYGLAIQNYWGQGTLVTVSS
T1 sequence (VL, as listed by the source, chain 2 of 2): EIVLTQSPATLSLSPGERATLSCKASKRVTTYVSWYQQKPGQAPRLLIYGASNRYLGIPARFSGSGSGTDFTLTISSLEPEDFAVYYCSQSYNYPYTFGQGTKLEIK

- binding result: no binding (tested: 10 µM)
B1: 19-36 CONH2 (peptide)
peptide: SGGVVKNNFVPTNVGSKA-NH2
notes: also called peptide fragment 19-36 (amidated at the C-terminus) of human α-CGRP
